Laboratory results published in article PMC6160412 (2018).

Columns and labels:
Assay in all cases: SPR
[1] = biological target: human LRRTM2 LRR domain, F357Y mutant (human, UniProt O43300 34-371, F357Y)
[2] = biological target: human LRRTM2 LRR domain, D352A mutant (human, UniProt O43300 34-371, D352A)
[3] = biological target: Neurexin-1β (+S4) (Mus musculus, UniProt P0DI97)
Chain of Neurexin-1β (+S4) (P0DI97 47-392): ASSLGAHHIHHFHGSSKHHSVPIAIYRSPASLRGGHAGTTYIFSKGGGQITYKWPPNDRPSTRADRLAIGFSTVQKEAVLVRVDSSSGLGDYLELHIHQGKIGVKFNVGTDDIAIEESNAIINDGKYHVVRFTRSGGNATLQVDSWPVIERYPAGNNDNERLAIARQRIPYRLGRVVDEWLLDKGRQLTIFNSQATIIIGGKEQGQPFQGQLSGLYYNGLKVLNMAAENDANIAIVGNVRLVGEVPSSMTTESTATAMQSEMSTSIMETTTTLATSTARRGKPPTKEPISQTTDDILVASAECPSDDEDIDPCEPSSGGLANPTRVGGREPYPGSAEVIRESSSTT

B1: human Nrxn1β LNS domain (–S4), wild type (domain or fragment)
chain: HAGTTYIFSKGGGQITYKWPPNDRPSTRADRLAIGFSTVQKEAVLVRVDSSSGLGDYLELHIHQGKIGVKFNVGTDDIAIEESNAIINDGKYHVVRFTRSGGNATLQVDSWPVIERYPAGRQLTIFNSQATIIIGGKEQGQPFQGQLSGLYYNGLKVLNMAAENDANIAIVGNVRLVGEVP
B1 was tested, and the Kd [1] was 19.3 µM and the Kd [2] was > 34 µM.

B2: LRRTM2 (protein)
chain: CPPKCRCEKLLFYCDSQGFHSVPNATDKGSLGLSLRHNHITALERDQFASFSQLTWLHLDHNQISTVKEDAFQGLYKLKELILSSNKIFYLPNTTFTQLINLQNLDLSFNQLSSLHPELFYGLRKLQTLHLRSNSLRTIPVRLFWDCRSLEFLDLSTNRLRSLARNGFAGLIKLRELHLEHNQLTKINFAHFLRLSSLHTLFLQWNKISNLTCGMDWTWSTLEKLDLTGNEIKAIDLTVFETMPNLKILLMDNNKLNSLDSKILNSLKSLTTVGLSGNLWECSPRVCALASWLGSFQGRWEHSILCHSPDHTQGEDILDAVHGFQLCWNLSTTVTAMATTYRDPTTEYTKISSSSYHVGDKEIPTTAGIAVTTEEHFPEPDNAIFTQRVITGTMALLFSFFFIIFIVFISRKCCPPTLRRIRQCSMIQNHRQLRSQTRLHMSNMSDQGPYNEYEPTHEGPFIIINGYGQCKCQQLPYKECEV
For B2, the Kd [3] was > 80 µM.
